The results in this text go back to the DeepSol protein solubility set.

This series can be described thus: soluble on expression in E. coli; label from the status in PepcDB or PDB records.
For “MGSDKIHHHHHHMGNILWVASYPKSGNTWVRAFLENYIQNAEQGVDINTMHKISTAESAAHRFQARLQDGRKTTDLSLDEICALRPAVQADIAMQAHGTTFVKTHNYLGTYKEYPLHNSSVTSGSIYIVRNPLDVTVSMANYFGYSIDETIAYMAEEMTGTPNEPENVPQVITSWSMHVSSWTQNPEEAKLVLRYEDILDDPKKVFRKIESFLGLKKDPNRLKNAIKHSSFAQLKAQESKRGFVEKHENAKSFFRQGSKNQWRQVLSDEQVAKIVEHHGEQMARFKYLPGKLR”, the “soluble on expression in E. coli” value is “not soluble”. With “MSLTAIHRPTWVSVDLDAAAHNLQEIREWTKAKKVYAVLKADGYGLGAIPLAKAFQETASADALIVSNLDEALELRQADLTLPIWVLGAWDYSDLKLFIDHDIVITIPSLAWLQNLPDFEGTLKVSLAIDTGMTRIGFDKADEISAAKKIIDKNPQLDLFSVYTHFATADEAGEKSKAYFEEQLRRWQELTINQGFDPSLFSMANSATCIWHHDDPRISFAAIRPGQLISGVNVSNGELKMPPNLHLERIFSVCSEIADVRFVKKDQSLSYGASERMPEDGYVATLPFGYNDGWLRRMQKSSVIINGKRMPIIGRITMDQTMVKLDRKYPIGTRVTLIGKDGGEQITVEEVANYSHTIVDEIQTTLAPRIKRIYTGDLAEVIGANYGEGHHHHHH” the entry was “soluble”; with “MARTVNLKGNPVTLVGPELKVGDRAPEAVVVTKDLQEKIVGGAKDVVQVIITVPSLDTPVCETETKKFNEIMAGMEGVDVTVVSMDLPFAQKRFCESFNIQNVTVASDFRYRDMEKYGVLIGEGALKGILARAVFIIDKEGKVAYVQLVPEITEEPNYDEVVNKVKELI”, “not soluble”. In the case of “GPGSMELTEEERGLLILRLHQVLRPFLLRRTKADVDSTLRMTFHHMWCPLSAMQQRLLCMLREQRRIPTVLGMAGGYSGKSSSSSEADNEEEEEAAGAADAAAHTSTFPAAEIGADESTGCTPYIAVAALAADALHGKASPDLDPLQARNETAMPRDRLAELVWRHLPALASTESSDILRCAVQQDRALGLTSAGVSESSARLVCNHAFLLPFFSQVLHRHGLDEVTQEGCNDADAAAVATSESSVVGAEAAERCGAAGLTLACSGKFLVLHLLLSRLYVAQRKVVLFTHWLNCVDLLVDYLYSRGWADHAEVLTGGSSEAERLTSVRRFREDPGCLFFLLSIKAGGCGINLQAAHMVVLVDRDYTVTNEDQALARVYRIGQRYTVRAVYLATTDSSEQHVAQRATAKNKPRQAIINDGVYQVTTASEGERVGETGEAVTAAKFADPPSHAYNELDTSELWRSISGATTPPSPTTAMQEARRPECDGTASGAARPAPFSLPPPEAFWVALSCLVESMDELVLTEEDRAAATVRSAEEERRSMGCTPANSAAARLLATRPPRSTAELHLRLQGGRDEMFSGPQRERGVAPSLSGTAASDAYLGVWKQSAEAPTTGDRTRSHTPSEPQAAALAAAPQPTPRSAPVTDPLQNSALFWLEYSHLLRIAGRGPYLLSDSLRVAVTNDTRKNDPEERVRRRQRRDRRVAKRLRLASVDVPDDFREACWAKEGIDDDAEVAERYLRFLDANAGKRRQRRRKDAG”, the “soluble on expression in E. coli” value was “not soluble”. Next, “MGSDKIHHHHHHMYAYHPEDIEDIKELIAQTENEQVEFKETTGQLERGMETLCAFLNGEGGTVLFGITDKGKIIGQEVADVTKRSIAEAINRLEPTANVHVFYIPLPDSSKKIIALHVENSRDNRPFCYKSRPYYRVESVTSAMPQAVYNQLLIIRDEAKYRWELFENPKLSLQDMDENEILKTVRLGIECGRLPENTGNNLSIILEKFGLLVNGVLNNAAAVLFANRELIEYPQCLLRLARFKGTDKMVFMDNQRVQGNLFQLLDSAMTFIFKHLSLSGTTEALEREEHLTIPYKAIREGIINSLCHRQFRTPGGSVGIAIYDDRVEIENPGTFPHGWDMERMKSEHCSEPRNPLIANVLYKRKLLENWGRGISLMTEECRKANLPEPEFKLANGFVILVFRYGTNNHTSTMQVPHKHHISTIQVQSLLNIMEYNTYSVKEMMELLELKNRSYFSKEYLKPAVETGVIEPIFPDQPKSPKQKYRLTEKGKALLEKR”: “not soluble”; “GPELYHYQECVRGTTVLLKEPCPSGTYEGNSPFHPLADNKFALTCTSTHFAFACADGTRHTYQLRARSVSPKLFIRQEEVQQELYSR”: “soluble”; “MSPSASDKPLPPHHAEHMAEAVAEACRGVECGDGGPFGAVVVDSNGKVVAKGHNMVLVTKDPTMHAEMTAIKNACKALGTFDLSGHILYTSCYPCPMCMGGCLWARFDAIYYGATAQQAAEIGFDDKAFHDFLKDPKSDEIRKLEHLAADNYLLPFQMWSNKPDKTEY”: “soluble”. Next, “MGSDKIHHHHHHMTPIRLIIVGLGARALTWIKVARANPDVEIVALCDPDPSARSAAARQFPKLPIGKDITDIIGTAADAVLLATPPRGREAQIEACCTHGLAVLAEKPLSDSVVTAARFVEMAEQAGVPLIVGLNFRYLAVTQEKRRLLADGAIGTPEFGRFIYERWRDGTQDWLNSYPLTMDHPMLWEQSIHHFDLMRYVHGVEPEYVQAHTANPSWTMYEGDTNVSALIGFKGGFHITYQGTWQSGHEPMNFNWRTDGSEGIVVQRAMFGDLAWAKRMEPELTPVDLPAHEAWITDAAALLDRFVAILRGATPECTGRDHLQSLFMLEACILASARRATVTIDEVRALTTPKETS”: “not soluble”; “SFYSGLLTEGGRKETDMREAASLRQQRRMKQAVQFIHKDSADLLPLDGLKKLGSSKDMQPHNILQRRLMETNLSKLRSGPRVPWASKTNKLNQAKSEGLKKSEEDDMILVSCQCAGKDVKALVDTGCLYNLISLACVDRLGLKEHVKSHKHEGEKLSLPRHLKVVGQIEHLVITLGSLRLDCPAAVVDDNEKNLSLGLQTLRSLKCIINLDKHRLIMGKTDKEEIPFVETVSLNEDNTSEA”: “soluble”; “MIQAILVFNNHGKPRLVRFYQRFPEEIQQQIVRETFHLVLKRDDNICNFLEGGSLIGGSDYKLIYRHYATLYFVFCVDSSESELGILDLIQVFVETLDKCFENVCELDLIFHMDKVHYILQEVVMGGMVLETNMNEIVAQIEAQNRLEKSEGGLSAAPARAVSAVKNINLPEIPRNINIGDLNIKVPNLSQFV”: “not soluble”. Next, “MLSKSLALGRRLTKISSSVKSISSITFKTVDGKPRDALTIHNVDFVIDPDEKMVDEYMKVYGNQRFNFKRNDIDIWRKSFKDSYSLWLVCLKGTNKIVQMSHVLNFPPLLSHNDILHQYHGFFWVDPDYRGKDSMAIMDYIEKHRARNQSDNDAGTFLTTAVTMWTKMHGHADYKHIMYVSYYKPDEMQIPEDLNLDGIFLKNATEVPDMDIVKYDNTVFPYERSKYMLNLLRDPEGFGKVAYDNNGKVIGFGNVIIYPSGECVLTPLYADDSKVAQAIFKSILKEIPLNDKKLLRFQIRSIDQCEGGFEWIQPFVKNPIRKEIMGHMAGSSHPPTVNYKKTYANTPYTTCVI”: “not soluble”; “DAETFHKDELDLAYDRISQQFDTDMGGMNKAPKFPMPSIYLYLLRDYALTGRQGSLQHVELTLDKMAMGGIYDTIGGGFARYSVDGAWFAPHFEKMLYDNGQLLSLYSEAYTVTKKPLYKEVIEETYTWLKREMLSPEGGFYSALDADSEGVEGKFYCWQYEELAQLIQEDFALFCAYYAITENGNWEHGMNILYKRMSDEAFAAAHSISAEALRESVSRWKNILFSERDPREHPGLDDKILASWNGIMLKGLCDAYRILGDAAILNTALMNAEFILTKLYDGKTLFHSYKNKKATIPGFLEDYTHVIDGYLALYEVSLDEQWLRQAITLVNHVIDHFYDDDEGLFFYTSRTSEKLIARKKEIFD”: “not soluble”. As for “MLKPEMIEKLNEQMNLELYSSLLYQQMSAWCSYHTFEGAAAFLRRHAQEEMTHMQRLFDYLTDTGNLPRINTVESPFAEYSSLDELFQETYKHEQLITQKINELAHAAMTNQDYPTFNFLQWYVSEQHEEEKLFKSIIDKLSLAGKSGEGLYFIDKELSTLDTQN”, the “soluble on expression in E. coli” value is given as “soluble”. Next, “MPKELWPLTGSRLEGSSMADRRRQRRTSKAGVGGRRVEYKRVPLGFIKAIVKTGHVVVEPSEKVRRNPPRGRFQVLLAGDGEVGYVSDVIGPINSPFIVVRVRERGVIEKLSPGAELIMLVPPKKPPRKGAPRRGSSRGRRGFKKGKARG”: “soluble”. Next, “MSAFQGNMFVLVNVDQHRDLIGPIINQLVADYGTPVSIVDNIQKICPKCSCTPHANPDSSSVPTTTSSDEHQEEPPTPKTIAPAPIATPVLKPLLPQRESIVSNGIHPVVVKRKQSIAEEIDTPEIKKSRVVEPVKVKTETIILDDDDGNVLDTVLAALQNGNHEMQFTGSGGSSDDGASNSSNIYDVDDEDYGTSQWNPDFLTNFITSQPNIFSVTGQNIKSSPSKNAGQTPNGKRQVPPMLTVNGKTRRGRIVYSTQELNILEKYYEEDPNACADPRKRETMCKTLSIDYHRLKVWFQNRRRKDKVRSQEEAATTFNGLDYSEDS”: “not soluble”; “MGSDKIHHHHHHMNQSNCIVAQSGGPTVAINASLAGVIAGVKSSEKYDICYGAVNGILGILNENYLNLSDIFADDANLEKLKTTPAMYLGSCRHKLPDYKDDDSPYVYIFHQFDKLSIKAFFYIGGNDSMDTVLKLSDYAKKINSDVKIIGIPKTIDNDLCMTDHTPGFGSAAKYIASSMLEIAHDTFIYAVKSVTIVEIMGRDAGWLTAASALARNEYNTAPQFIYLPEVNFDKDKFVADIKEALAHTNNVIVAVSEGIHDADGSYITSSKAACDQFGHQQLSGAGKALEFIVKENIGVKVRSVEVNVLQRCASHLASLTDIEESFAQGKKGVTIAAEGVTASMVCLKRISNKPYQVEYTYSAIKDIANEAKSVPREWINDAGNDVKPELIEYLKPLIQGETAVAYKNGLPDYMDVSHLHKCN”: “not soluble”; “GPGSMTGPFRYVITDMDGTLLSPDHFVSDYTRDTLKTLVHEHGVIPILATGRSYADVRIIADNLKAYIWCDGTAAPGARAPASPSRAPVIYLITSNGATVHNGVTHEVVFRTSIDPALAEKLLQLLPSDEEVVNTNAYQNDDWVCRIDWPKMMAVSKESGIRFIHVPHPLPSSSCALGSAAASPDAAARGIAIGDYTGISKIFFITDDAARLAALADEVHAIAKAHGGAPVSLTFSMSDCMDIMANGVTKGEALKRLFGAILPSRDGVDVVADALAHAIAFGDGLNDAEMLASVGKGCVMGNANPKLIAQHPELEVILTNAEDGVAKKLRSAFHLPL”: “soluble”. Consider “MGLALQHSHRWDLSPREAANLQTRLRPLVLAEDALPDEIRTVAGVDVGFEDHGRITRAAVAVLDFPSLRPSDQAIVRRPTRFPYVPGLLSFRELPALLEALERLNLLPGLILVDGHGYAHPRRFGIACHLGVLTGIPTIGVGKTRLVGTHGELAEDRGSWIPLIDGDETVGAVVRTRRGVQPVYVSVGHRLSLPTAVDWVLRCTPRYRLPETTRQAHRLASALEHHHHHH”, for which the “soluble on expression in E. coli” value was “not soluble”. With “MGSDKIHHHHHHMRALLCGYYGEGNGGDEALLAALLQLLPPTVEPLVLSGNPAATRTCYGVEACDRRSGAAVWQALRRSDLFIFGGGSLIQDVTSWTSPLYYCGLMGLAQQLGLKTIAWAQGIGPLQRKRTRWLARRTFQHCDRITVRDRGSAALLKEWGISVAIAPDPVWALEPLPLDQPLSNQEAIAVCLRPHPELTPERSDRLKAALTTLQSQTQAPILLIPFHHQQDRPLAAQWASEIPQAEVLDWQHPRQLLSYFQSVRLTIAMRFHGLVMAAAAGNRCFGLSYDPKVRRFLDALEQPGWDLPEIPDSAEAIAAAWLESWQAEPIHAAAIADLRQQVDVHRQALVF” the entry was “not soluble”; with “MSIRDERKQQSRQALLDAALQLSTGGRSFSSISLREVAREVGLVPTAFYRHFQDMDALGQELVDQVALHIKSLIHQLGQSYLQQVSTHPDSSIELFFQAINHSPLEWQFMIAERWGGSAAVRQAIAREIEDLIEDLATDLRKLPMFEHIQDSQDLKVLSTILINLSFTWAMTWLSLASQYQDAALSQHQQQFVENANTQIRLMFRGVANWG”, “not soluble”.
